From patent publication US20190071490A1, “Preventing Post-Ictal Headaches” (Beth Israel Deaconess Medical Center, Inc., priority 2017, published 2019) come the findings set out here.

Assay [1] has as its target human α-CGRP 1-37 (WT) (human). As to the kind of experiment: Biacore SPR, 25 °C, Fab flowed across N-biotinylated peptide on SA chip.
Assay [2] deals with human α-CGRP fragment 25-37 (human). As to the kind of experiment: Biacore, 25°C, Fab over biotinylated fragment (FIG. 1).
Assay [3] concerns the target human α-CGRP 1-37 (WT) (human). The experiment in a line: Biacore, 25°C, Fab over biotinylated CGRP on SA chip.
In assay [4] the target is human α-CGRP fragment 19-37 (human). The experiment in a line: Biacore SPR, 25 °C, Fab flowed across N-biotinylated peptide on SA chip; mean ± SD of two independent measurements on different chips.
Assay [5] concerns the target human α-CGRP fragment 25-37 (human). Described as above.
The target in assay [6] is human α-CGRP K35A (19-37) (human). As to the kind of experiment: Biacore SPR, 25 °C, Fab flowed across peptide on SA chip; KD of alanine mutant relative to parent fragment 19-37.
Assay [7] has as its target human α-CGRP 1-37 (WT) (human). As to the kind of experiment: Biacore, 37°C, Fab over biotinylated CGRP on SA chip.
For the next assay, the target named is rat α-CGRP (1-37) (rat). Described as above.
Sequence of rat α-CGRP (1-37) (rat) (peptide, as listed by the source): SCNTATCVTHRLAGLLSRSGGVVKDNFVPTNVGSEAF
The target of assay [8] is human α-CGRP P29A (25-37) (human). The experiment in a line: Biacore SPR, 25 °C, Fab flowed across peptide on SA chip; KD of alanine mutant relative to parent fragment 25-37.
For assay [9], the target named is human α-CGRP N31A (25-37) (human). The description is as above.
Assay [10] deals with human α-CGRP G33A (25-37) (human). Described as above.
Assay [11] addresses human α-CGRP F27A (25-37) (human). Described as above.
For assay [12], the target named is human α-CGRP T30A (25-37) (human). The description is as above.
The target of assay [13] is human α-CGRP V32A (25-37) (human). The description is as above.
The target in assay [14] is human α-CGRP S34A (25-37) (human). Described as above.
Assay [15] concerns the target human α-CGRP V28A (25-37) (human). The assay is described as above.

Sequence of human α-CGRP 1-37 (WT) (human) (peptide, as listed by the source): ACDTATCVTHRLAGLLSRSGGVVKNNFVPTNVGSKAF

Turning to anti-CGRP antibody 4901, Fab fragment, the equilibrium dissociation constant (Kd) came out at 60.5 nM in [1]; 61 nM in assay [3]; 52 nM in assay [4]; 296 nM in assay [5]; 139 nM in assay [7]; 3.4 nM with rat α-CGRP (1-37) (rat). Also, the fold lower affinity than to full length human α-CGRP in [2] was determined as 6 fold. For the same substance, the KD(mutant/parent) in [6] stood at 0.3; in [8] it was 0.2; in assay [9], 0.3; in assay [10], 1.3; in assay [11], 0.8; in assay [12], 0.2. The KD(mutant/parent) was found to be 0.9 in assay [13], 0.8 in [14] and 0.8 in [15].
